Results on one molecule are retold here after paper PMC3875388.

In the data set the target is AhR;ARNT (mouse (C57BL/6);mouse (C57BL/6), UniProt P30561;P53762 1-848;1-791, |). Put plainly: EMSA. For orientation: Mobility shift assays separate free from complexed probe on a gel.
AhR;ARNT, sequence (P30561 whole entry, chain 1 of 2): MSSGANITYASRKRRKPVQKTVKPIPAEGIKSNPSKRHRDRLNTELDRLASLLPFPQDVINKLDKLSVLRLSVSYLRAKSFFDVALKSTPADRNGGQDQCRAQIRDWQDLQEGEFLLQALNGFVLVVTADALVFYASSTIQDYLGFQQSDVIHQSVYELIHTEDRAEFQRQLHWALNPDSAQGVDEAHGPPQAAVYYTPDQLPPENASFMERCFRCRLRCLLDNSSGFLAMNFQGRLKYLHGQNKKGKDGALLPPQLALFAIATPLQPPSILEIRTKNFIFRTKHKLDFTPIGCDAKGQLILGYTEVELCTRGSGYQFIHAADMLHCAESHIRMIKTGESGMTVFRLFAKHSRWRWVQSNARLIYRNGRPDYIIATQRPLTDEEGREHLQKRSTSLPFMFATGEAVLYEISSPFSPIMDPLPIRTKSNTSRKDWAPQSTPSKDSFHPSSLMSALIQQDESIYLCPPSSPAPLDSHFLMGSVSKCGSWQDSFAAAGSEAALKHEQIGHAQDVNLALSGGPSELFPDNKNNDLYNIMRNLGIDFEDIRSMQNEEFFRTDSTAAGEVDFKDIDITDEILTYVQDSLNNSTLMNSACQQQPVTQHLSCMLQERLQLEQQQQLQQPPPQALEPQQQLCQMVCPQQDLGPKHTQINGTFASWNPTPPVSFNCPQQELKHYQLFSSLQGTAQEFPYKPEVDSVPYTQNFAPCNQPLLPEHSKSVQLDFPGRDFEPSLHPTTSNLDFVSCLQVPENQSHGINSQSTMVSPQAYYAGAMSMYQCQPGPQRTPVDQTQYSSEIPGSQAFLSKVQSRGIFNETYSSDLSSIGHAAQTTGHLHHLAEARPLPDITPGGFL
AhR;ARNT, sequence (P53762 whole entry, chain 2 of 2): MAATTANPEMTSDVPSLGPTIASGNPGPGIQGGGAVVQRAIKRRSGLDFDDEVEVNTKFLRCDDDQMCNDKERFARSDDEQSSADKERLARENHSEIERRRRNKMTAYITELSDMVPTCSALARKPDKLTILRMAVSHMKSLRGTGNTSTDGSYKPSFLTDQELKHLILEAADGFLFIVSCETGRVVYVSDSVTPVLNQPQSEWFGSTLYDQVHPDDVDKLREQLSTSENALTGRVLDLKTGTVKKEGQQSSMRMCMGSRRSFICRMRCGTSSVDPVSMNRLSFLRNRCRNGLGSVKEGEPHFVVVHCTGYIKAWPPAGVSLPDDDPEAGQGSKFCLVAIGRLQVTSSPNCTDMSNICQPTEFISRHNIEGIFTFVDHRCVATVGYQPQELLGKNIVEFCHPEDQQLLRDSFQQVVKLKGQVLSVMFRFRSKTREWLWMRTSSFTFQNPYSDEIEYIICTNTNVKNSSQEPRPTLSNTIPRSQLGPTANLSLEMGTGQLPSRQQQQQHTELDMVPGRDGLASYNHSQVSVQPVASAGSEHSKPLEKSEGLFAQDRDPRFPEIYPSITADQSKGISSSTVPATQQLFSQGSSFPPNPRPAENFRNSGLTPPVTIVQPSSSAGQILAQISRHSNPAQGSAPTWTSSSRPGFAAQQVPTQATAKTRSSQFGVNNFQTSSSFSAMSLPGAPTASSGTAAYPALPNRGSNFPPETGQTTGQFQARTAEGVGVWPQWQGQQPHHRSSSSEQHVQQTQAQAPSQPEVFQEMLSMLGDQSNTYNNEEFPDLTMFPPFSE

B1: Bax DRE-like (dsDNA)
DNA 1: GATCCAGAAAGCCGGGCGTGGTGGCGCACGCCTTTAATCCCA
DNA 2: GATCTGGGATTAAAGGCGTGCGCCACCACGCCCGGCTTTCTG
With B1, the binding result was “no binding”.
